Assay results from doi:10.1101/2022.01.03.474807.

Assays:
[1] = molecular target: human melanocortin-1 receptor (human) (UniProt Q01726)
[2] = molecular target: human melanocortin-3 receptor (human) (UniProt P41968)
[3] = molecular target: human melanocortin-4 receptor (human) (UniProt P32245)
[4] = molecular target: human melanocortin-5 receptor (human) (UniProt P33032)
UniProt P33032, sequence (P33032 whole entry): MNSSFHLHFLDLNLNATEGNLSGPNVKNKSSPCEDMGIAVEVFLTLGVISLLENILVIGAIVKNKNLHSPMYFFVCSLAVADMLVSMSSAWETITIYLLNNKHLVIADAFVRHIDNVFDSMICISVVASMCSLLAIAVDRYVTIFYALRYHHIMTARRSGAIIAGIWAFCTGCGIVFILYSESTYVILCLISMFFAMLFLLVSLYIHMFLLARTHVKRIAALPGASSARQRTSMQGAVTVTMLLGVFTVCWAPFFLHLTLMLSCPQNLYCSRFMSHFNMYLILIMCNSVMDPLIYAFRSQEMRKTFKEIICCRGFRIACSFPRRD

UniProt Q01726, sequence (Q01726 whole entry): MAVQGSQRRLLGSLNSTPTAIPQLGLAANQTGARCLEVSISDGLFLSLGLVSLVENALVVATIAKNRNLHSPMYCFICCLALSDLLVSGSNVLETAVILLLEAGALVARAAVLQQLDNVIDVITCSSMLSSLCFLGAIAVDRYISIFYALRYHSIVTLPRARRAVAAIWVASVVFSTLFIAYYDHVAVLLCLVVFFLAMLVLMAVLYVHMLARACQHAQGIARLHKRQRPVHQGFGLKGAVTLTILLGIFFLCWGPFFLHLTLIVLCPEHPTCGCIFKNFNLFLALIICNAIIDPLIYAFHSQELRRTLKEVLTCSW
UniProt P32245, sequence (P32245 whole entry): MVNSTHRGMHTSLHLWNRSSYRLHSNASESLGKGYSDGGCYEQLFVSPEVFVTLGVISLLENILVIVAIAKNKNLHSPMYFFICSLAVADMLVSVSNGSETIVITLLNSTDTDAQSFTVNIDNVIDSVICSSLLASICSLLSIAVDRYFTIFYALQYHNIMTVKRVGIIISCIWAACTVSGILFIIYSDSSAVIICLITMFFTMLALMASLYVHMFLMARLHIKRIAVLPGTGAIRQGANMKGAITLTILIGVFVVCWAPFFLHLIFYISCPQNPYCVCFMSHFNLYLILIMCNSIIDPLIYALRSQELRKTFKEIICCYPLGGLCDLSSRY
UniProt P41968, sequence (P41968 whole entry): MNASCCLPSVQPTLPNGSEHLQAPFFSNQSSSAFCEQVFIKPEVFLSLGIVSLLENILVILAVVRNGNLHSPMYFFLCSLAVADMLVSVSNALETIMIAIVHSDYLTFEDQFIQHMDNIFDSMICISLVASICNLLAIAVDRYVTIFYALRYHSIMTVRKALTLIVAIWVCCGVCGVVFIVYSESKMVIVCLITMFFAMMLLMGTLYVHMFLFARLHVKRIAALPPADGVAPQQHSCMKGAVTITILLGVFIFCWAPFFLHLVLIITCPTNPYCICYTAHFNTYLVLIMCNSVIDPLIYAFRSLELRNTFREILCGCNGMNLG

EC90 of the cAMP response (split-luciferase cAMP sensor) [1]: 10 nM | EC90 of the cAMP response (split-luciferase cAMP sensor) [2]: 30 nM | EC90 of the cAMP response (split-luciferase cAMP sensor) [3]: 70 nM | EC90 of the cAMP response (split-luciferase cAMP sensor) [4]: 500 nM
Substance: α-melanocyte-stimulating hormone (ligand)
